Assay results from US20250188188A1 (DIANTHUS THERAPEUTICS OPCO, published 2025).
Substitutions are numbered along the chain they refer to. Names may count otherwise.

T1: active human C1s purified from human serum (CompTech, Tyler, TX, catalog number A104) (human, UniProt P09871 16-437; P09871 438-688)
T1 construct: Serum-derived material, biotinylated for the ELISA; also called human active C1s; active C1s
T1 sequence 1: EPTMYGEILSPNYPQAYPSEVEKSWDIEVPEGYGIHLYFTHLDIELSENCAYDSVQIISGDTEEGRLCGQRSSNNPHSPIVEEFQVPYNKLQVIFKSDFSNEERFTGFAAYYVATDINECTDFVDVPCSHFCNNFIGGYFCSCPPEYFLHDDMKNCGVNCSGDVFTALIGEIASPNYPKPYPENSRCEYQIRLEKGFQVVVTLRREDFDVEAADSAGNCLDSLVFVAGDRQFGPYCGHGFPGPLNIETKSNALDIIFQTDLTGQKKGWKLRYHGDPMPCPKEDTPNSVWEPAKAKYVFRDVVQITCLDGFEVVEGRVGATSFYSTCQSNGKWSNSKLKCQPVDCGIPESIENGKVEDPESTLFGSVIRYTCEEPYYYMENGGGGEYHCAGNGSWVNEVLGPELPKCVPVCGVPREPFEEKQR
T1 sequence 2: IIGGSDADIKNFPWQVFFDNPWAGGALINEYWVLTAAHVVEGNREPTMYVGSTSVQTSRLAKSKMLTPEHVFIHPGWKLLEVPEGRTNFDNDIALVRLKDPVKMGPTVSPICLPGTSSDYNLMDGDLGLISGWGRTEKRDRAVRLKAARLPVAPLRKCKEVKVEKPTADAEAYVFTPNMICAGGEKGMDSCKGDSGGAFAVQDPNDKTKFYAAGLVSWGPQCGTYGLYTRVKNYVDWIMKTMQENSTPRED

B1: IgG4-MAB39 (MAB39 in human IgG4 with S228P, L235E and YTE) (antibody)
heavy: EVQLVESGGGLVKPGGSLRLSCAASGFTFSDYYMSWIRQAPGKGLEWVSYISRSGSTKYYADSVKGRFTISRDNAKNSLYLQMNSLRAEDTAVYYCARDENYALDWWGQGTLVTVSSASTKGPSVFPLAPCSRSTSESTAALGCLVKDYFPEPVTVSWNSGALTSGVHTFPAVLQSSGLYSLSSVVTVPSSSLGTKTYTCNVDHKPSNTKVDKRVESKYGPPCPPCPAPEFEGGPSVFLFPPKPKDTLYITREPEVTCVVVDVSQEDPEVQFNWYVDGVEVHNAKTKPREEQFNSTYRVVSVLTVLHQDWLNGKEYKCKVSNKGLPSSIEKTISKAKGQPREPQVYTLPPSQEEMTKNQVSLTCLVKGFYPSDIAVEWESNGQPENNYKTTPPVLDSDGSFFLYSRLTVDKSRWQEGNVFSCSVMHEALHNHYTQKSLSLSLG
light: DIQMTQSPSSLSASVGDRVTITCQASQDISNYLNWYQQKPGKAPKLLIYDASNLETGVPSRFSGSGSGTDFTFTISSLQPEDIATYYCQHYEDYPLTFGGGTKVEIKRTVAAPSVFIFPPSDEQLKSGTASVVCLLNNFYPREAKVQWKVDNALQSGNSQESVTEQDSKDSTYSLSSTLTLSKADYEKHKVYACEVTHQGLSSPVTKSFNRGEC
notes: Differs from MAB9 only in the N-terminal VH residue (E instead of Q); also called IgG-MAB39
B2: IgG4-MAB9 (MAB9 in human IgG4 with S228P, L235E and YTE) (antibody)
heavy: B1 heavy with E1Q
light: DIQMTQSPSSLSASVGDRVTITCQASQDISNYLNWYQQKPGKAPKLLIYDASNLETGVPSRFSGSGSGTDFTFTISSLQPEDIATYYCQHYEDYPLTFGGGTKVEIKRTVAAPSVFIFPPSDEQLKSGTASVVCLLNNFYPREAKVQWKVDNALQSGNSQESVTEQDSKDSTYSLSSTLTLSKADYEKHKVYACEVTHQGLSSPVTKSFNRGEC
notes: also called MAB9 with constant domain PE and YTE mutations
B3: IgG4-MAB4 (MAB4 in human IgG4 with S228P, L235E and YTE) (antibody, V domains shown)
VH: QVQLVESGGGLVKPGGSLRLSCAASGFTFSDYYMSWIRQAPGKGLEWVSYISRSGSTKYYADSVKGRFTISRDNAKNSLYLQMNSLRAEDTAVYYCARDESQYALDYWGQGTLVTVSS
VL: DIQMTQSPSSLSASVGDRVTITCQASQDISNYLNWYQQKPGKAPKLLIYDASNLETGVPSRFSGSGSGTDFTFTISSLQPEDIATYYCHQYEDYPLTFGGGTKVEIKR

Experiments:
[1] = molecular target: T1, active human C1s purified from human …; assay: SPR (Biacore 4000), 37 C pH 7.4, antibody captured via goat anti-human antibody, C1s in solution, n=4
Procedure: (§1) Binding of MAB39 and MAB9 to Human Active C1s at 37° C./pH 7.4 Measured by Surface Plasmon Resonance. Human active C1s purified from serum was procured from Complement Technologies, Tyler, TX (catalog number A104). Studies to evaluate MAB39 and MAB9 binding to human active C1s at 37° C. were performed on a Biacore 4000 and Biacore T100 (Cytiva, Marlborough, MA), respectively. Goat anti-human antibody (ThermoFisher, Waltham, MA, USA, catalog number H10500) was amine-coupled to a C1 sensor chip (Cytiva, Marlborough, MA, USA, catalog number BR100535). MAB39 was diluted to 6.67 nM and MAB9 was diluted to 10 nM in 50 mM HEPES pH 7.4, 150 mM NaCl, 1.3 mM Ca, 0.02% Tween-20, 1 mg/mL BSA (HBS). MAB39 was captured for 60 seconds to produce surface densities of 200 RU and MAB9 was captured for 30 seconds to produce surface densities of 10 to 20 RU. Human active C1s was tested for binding using a 3-fold titration series in HBS with a maximum concentration of 12.3 nM for MAB39 and 16 nM for MAB9. Data were processed by subtracting responses from a reference surface as well as a buffer injection. The processed data were fitted with a 1:1 interaction model including baseline offset and bulk refractive index shifts in the association phase. Surfaces were regenerated with a 12 second injection of 1/100 dilution of H3PO4 for MAB39 and 12 second injection of 1/50 dilution of H3PO4 for MAB9. Replicate experiments were performed (n=2 for MAB9 and n=4 for MAB39).
Comparison of Binding Affinities of MAB39 and MAB9 to Human Active C1s by Surface Plasmon Resonance. The human active C1s association constant (ka), disassociation constant (kd) and affinity (KD) for MAB39 and MAB9 were determined in separate experiments (Table 17). […] Statistical analysis was performed using paired t-test, with p value of 0.6168.

[2] = molecular target: T1, active human C1s purified from human …; assay: cell-based or functional assay
[3] = molecular target: T1, active human C1s purified from human …; assay: cell-based or functional assay; remark: listed apart in the source
[4] = molecular target: T1, active human C1s purified from human …; assay: SPR (Biacore T100), 37 C pH 7.4, antibody captured via goat anti-human antibody, C1s in solution, n=2; Table 17 experiment, apart from Table 12
Procedure: as §1, with “The processed data were fitted with a 1:1 interaction model including baseline offset and bulk refractive index shifts in the association phase. Surfaces were regenerated with a 12 second injection of 1/100 dilution of H3PO4 for MAB39 and 12 second injection of 1/50 dilution of H3PO4 for MAB9. Replicate experiments were performed (n=2 for MAB9 and n=4 for MAB39).” left out
(§2) Comparison of Binding Affinities of MAB39 and MAB9 to Human Active C1s by Surface Plasmon Resonance. The human active C1s association constant (ka), disassociation constant (kd) and affinity (KD) for MAB39 and MAB9 were determined in separate experiments (Table 17). […]

[5] = molecular target: T1, active human C1s purified from human …; assay: SPR, direct comparison
[6] = molecular target: T1, active human C1s purified from human …; assay: cell-based or functional assay; remark: listed apart in the source
[7] = molecular target: T1, active human C1s purified from human …; assay: cell-based or functional assay; remark: listed apart in the source
[8] = molecular target: T1, active human C1s purified from human …; assay: cell-based or functional assay; remark: listed apart in the source
[9] = molecular target: T1, active human C1s purified from human …; assay: SPR (Biacore T100), 37 C pH 7.4, antibody captured via goat anti-human antibody, C1s in solution, n=2
Procedure: as §1, with “The processed data were fitted with a 1:1 interaction model including baseline offset and bulk refractive index shifts in the association phase. Surfaces were regenerated with a 12 second injection of 1/100 dilution of H3PO4 for MAB39 and 12 second injection of 1/50 dilution of H3PO4 for MAB9. Replicate experiments were performed (n=2 for MAB9 and n=4 for MAB39).” left out
as §2

| Binder | Kd [1] | koff [1] | kon [1] | IC50, inhibition of C3b deposition on sensitized hRBCs in 7.5% human serum (flow cytometry), Donor A [2] | IC50, inhibition of C3b deposition on sensitized hRBCs in 7.5% human serum (flow cytometry), Donor B (1) [2] | IC50, inhibition of C3b deposition on sensitized hRBCs in 7.5% human serum (flow cytometry), Donor B (2) [2] | IC50, inhibition of sensitized hRBC lysis in 25% human serum [3] | Kd [4] | fold higher affinity than MAB2 (US20220380483A1) [5] | IC50, inhibition of Wieslab complement classical pathway (C5b-9 ELISA), 1% human serum [6] | IC50, inhibition of sensitized hRBC lysis in 25% human serum, Donor 1 [7] | IC50, inhibition of sensitized hRBC lysis in 25% human serum, Donor 2 [7] | IC50, inhibition of sensitized hRBC lysis in 25% human serum, Donor 3 [7] | IC50 in the RBC lysis assay (FIG. 4C) [8] | fold improvement in potency (IC50, RBC lysis assay) against MAB2 (US20220380483A1) [8] | koff [9] | kon [9] |
| --- | --- | --- | --- | --- | --- | --- | --- | --- | --- | --- | --- | --- | --- | --- | --- | --- | --- |
| B1 | 0.0105 nM | 0.000125 s⁻¹ | 1.19e+07 M⁻¹ s⁻¹ |  |  |  |  |  |  |  |  |  |  |  |  |  |  |
| B2 |  |  |  | 64.1 nM | 124 nM | 202 nM | 17.6 nM | 0.0071 nM | ~10 fold | 0.78 nM | 12.9 nM | 22.1 nM | 5.8 nM | 17.6 nM | > 3 fold | 0.00012 s⁻¹ | 1.69e+07 M⁻¹ s⁻¹ |
| B3 |  |  |  | 69.2 nM | 193 nM | 262 nM | 17.5 nM |  |  | 2.6 nM | 14.9 nM | 17.1 nM | 6.6 nM |  |  |  |  |
